One experiment has as its target prio_human PRNP (UniProt P04156).
The next experiment deals with prio_bovin PRNP (UniProt P10279).

With “Major prion protein (Bos taurus (Bovine)) (from UniProt P10279) L149I”, in the experiment with prio_human PRNP, the “effect of a mutation on the interaction” value was “decreasing interaction”.

Consider “Major prion protein (Homo sapiens) (from UniProt P04156) M129V”, for which the “effect of a mutation on the interaction” value in the experiment with prio_bovin PRNP was “decreasing interaction”.

Source of the values: IntAct's records for PubMed 21920025.
